Entries after “also recorded” stand apart in the source; their conditions may differ.
Legend:
[1] = test system: RIP1-Tag2 insulinoma (PanNET) model; experiment: Late stage treatment in RIP1-Tag2 (PanNET) mice; format: in vivo, mouse; conditions: age 10 to 12 weeks, 5 mg/kg every other day IP
From the text: RIP1-Tag2: The RIP1Tag2 (RT2) murine PanNET model was developed by the fusion of Rat Insulin II promoter region to the SV40 early region that encodes the large T and small t antigens. Although oncogene expression begins during embryonic development (E8.5), the pancreatic islets initially have a normal anatomical and histological appearance (“normal” stage). Beginning at 4-5 weeks of age, hyperplastic and dysplastic islets begin to appear, rending 50% of all islets by 10 weeks of age. Angiogenic islets appear beginning around 6 weeks of age, and represent 10% of all islets at 10.5 weeks. Angiogenic islets are recognized by their dilated blood vessels and micro-hemorrhages. Tumors form beginning at 9-10 weeks and represent 2-4% of all the islets by 14 weeks. About half of the tumors at end stage evidence either focal or widespread invasion to the surrounding acinar tissue. RIP-Tag2 mice die at approximately 14 weeks of age primarily due to hyperinsulinemia.
The tumor volume was measured using x, y and z dimensions from a caliper scale.

MMP-12 = MMP-12 (Homo sapiens, UniProt P39900); experiment: ELISA binding, cross-reactivity
MMP-12, sequence (P39900 106-470): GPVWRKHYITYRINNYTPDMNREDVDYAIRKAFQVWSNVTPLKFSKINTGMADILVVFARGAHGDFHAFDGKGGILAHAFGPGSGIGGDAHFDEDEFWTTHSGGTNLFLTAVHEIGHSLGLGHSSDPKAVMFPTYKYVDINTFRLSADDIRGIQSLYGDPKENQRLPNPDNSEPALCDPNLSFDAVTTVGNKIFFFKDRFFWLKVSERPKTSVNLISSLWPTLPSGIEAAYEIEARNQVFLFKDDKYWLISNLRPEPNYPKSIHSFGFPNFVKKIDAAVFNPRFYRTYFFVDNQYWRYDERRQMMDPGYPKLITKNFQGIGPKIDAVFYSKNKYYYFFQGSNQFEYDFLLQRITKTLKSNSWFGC

panel of other MMPs = experiment: ELISA binding, panel of other MMPs
Method: MMP-7 Elisa binding assay: A 96-well plate (Nunc) was coated with MMP at […]. After coating, the plate was incubated with the GSM-192 at 25° C. for 1 h. The bound Fab fragment/full length was detected using a goat anti-Fab/anti-mouse antibody followed by peroxidase-conjugated bovine anti-goat antibody according to standard procedures. A four-parametric sigmoidal curve-fitting analysis was used to calculate the half-maximal effective concentration.

[2] = test system: RIP1-Tag2 mice serum (circulating MMP); experiment: Dot blot with RIP1-Tag2 mice serum; format: binding, mouse; conditions: serum of RIP1-Tag2 mice with late stage insulinomas, 335 times the protein of pure MMP-7 control
Method: (§1) A dot blot was performed by immobilizing 1, 1.5 and 2 μg zymogen and activated MMP-7 recombinant enzyme on nitrocellulose membrane pre wetted with TBST using a vacuum based manifold 96 well dot-blot system (GE 10447900 Minifold dot blot). The blocking was performed for 1 hour at room temperature with 3% BSA in TBST. The membrane was then probed for binding by antibody eluted in the earlier step by incubating overnight. The anti MMP-7 mAb used was at 2 ug/ml concentration in TBST. The membrane after 3 washes in TBST was incubated with goat anti mouse HRP antibody and developed using ECL to determine the selectivity of binding towards catalytic form only.
Serum isolated from RIP1-Tag2 mice with late stage insulinomas were used to determine if anti MMP-7 mAb would be bound and removed by circulating enzyme. […] The total serum protein loaded for this experiment was 335 times the protein concentration used for pure MMP-7 catalytic control.

MMP-7 zymogen = target: T1, MMP-7 zymogen (Homo sapiens, UniProt P09237); experiment: Dot blot, zymogen; format: binding
T1 sequence (P09237 18-267 limits assumed): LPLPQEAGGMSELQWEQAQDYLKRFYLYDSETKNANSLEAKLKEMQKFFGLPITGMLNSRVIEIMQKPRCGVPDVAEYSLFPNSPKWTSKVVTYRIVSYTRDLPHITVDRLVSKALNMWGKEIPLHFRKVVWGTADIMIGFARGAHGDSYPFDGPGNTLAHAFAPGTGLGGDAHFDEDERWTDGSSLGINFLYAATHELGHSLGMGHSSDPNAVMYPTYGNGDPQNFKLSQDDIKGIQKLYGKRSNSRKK
Method: as §1

B1: GSM-192: monoclonal antibody to MMP-7 binding the catalytic domain, not the zymogen; VL SEQ ID NO: 1, VH SEQ ID NO: 2 (antibody, V domains shown)
VH: EVQLQQSGPELVKPGASVKIPCKASGYTFTDYNMDWMKQSHGKSLEWIGHINPNNGGTFYNQKFKDKATFIVDKSSNTAYMELRSLTSEDTAVYFCARGGGLRRGPFAYWGQGTLVTVS
VL: DIVTQSPASLAVSLGQRATISCRASESFDSYGNTFVHWYQQKPGQPPKLLIYLVSNLESGVPAGFRGRGSRTDFTLTIDPVEADDAATYYCQQNNEDPYTFGGGTKLEIKRA
modifications: GSM-192 Heavy Chain Sequence; GSM-192 Light Chain Sequence
tumor volume relative to control group [1]: less than half | crossreactivity to MMP-12 (MMP-12): did not show crossreactivity | binding to a panel of other MMPs (panel of other MMPs): did not bind effectively | binding to total serum proteins ([2]; listed as Anti MMP-7mAb): does not bind | binding to total serum proteins ([2]; listed as anti MMP-7 mAb): did not show any binding | binding to zymogen form of MMP-7 (MMP-7 zymogen): not the zymogen form; also recorded: did not bind

Source: US12291578B2, “Anti-matrix metalloproteinase 7 (MMP-7) inhibitory antibody and uses thereof” (Yeda Research and Development Co. Ltd., priority 2019, dated 2025)
